B1: Mothers against decapentaplegic homolog 4 (Homo sapiens), Q13485 (parent)
chain: MDNMSITNTPTSNDACLSIVHSLMCHRQGGESETFAKRAIESLVKKLKEKKDELDSLITAITTNGAHPSKCVTIQRTLDGRLQVAGRKGFPHVIYARLWRWPDLHKNELKHVKYCQYAFDLKCDSVCVNPYHYERVVSPGIDLSGLTLQSNAPSSMMVKDEYVHDFEGQPSLSTEGHSIQTIQHPPSNRASTETYSTPALLAPSESNATSTANFPNIPVASTSQPASILGGSHSEGLLQIASGPQPGQQQNGFTGQPATYHHNSTTTWTGSRTAPYTPNLPHHQNGHLQHHPPMPPHPGHYWPVHNELAFQPPISNHPAPEYWCSIAYFEMDVQVGETFKVPSSCPIVTVDGYVDPSGGDRFCLGQLSNVHRTEAIERARLHIGKGVQLECKGEGDVWVRCLSDHAVFVQSYYLDREAGRAPGDAVHKIYPSAYIKVFDLRQCHRQMQQQAATAQAAAAAQAAAVAGNIPGPGSVGGIAPAISLSAAAGIGVDDLRRLCILRMSFVKGWGPDYPRQSIKETPCWIEIHLHRALQLLDEVLHTMPIADPQPLD
partner: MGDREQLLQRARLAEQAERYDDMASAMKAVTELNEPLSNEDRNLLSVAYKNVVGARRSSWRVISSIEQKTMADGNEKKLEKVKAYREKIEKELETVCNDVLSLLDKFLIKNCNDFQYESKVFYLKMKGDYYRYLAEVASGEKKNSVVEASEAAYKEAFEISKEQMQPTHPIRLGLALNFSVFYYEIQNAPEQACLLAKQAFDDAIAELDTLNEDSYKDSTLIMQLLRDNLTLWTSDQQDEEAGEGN
B2: Mothers against decapentaplegic homolog 4 (Homo sapiens), Q13485 (parent)
chain: B1 chain
partner: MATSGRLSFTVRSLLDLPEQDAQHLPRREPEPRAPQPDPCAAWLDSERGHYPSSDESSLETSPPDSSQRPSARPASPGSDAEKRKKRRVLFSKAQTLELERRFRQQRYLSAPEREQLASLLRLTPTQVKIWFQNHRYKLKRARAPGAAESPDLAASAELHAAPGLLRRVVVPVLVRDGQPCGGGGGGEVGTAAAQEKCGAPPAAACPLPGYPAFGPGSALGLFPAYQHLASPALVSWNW
B3: Mothers against decapentaplegic homolog 4 (Homo sapiens), Q13485 (parent)
chain: B1 chain
partner: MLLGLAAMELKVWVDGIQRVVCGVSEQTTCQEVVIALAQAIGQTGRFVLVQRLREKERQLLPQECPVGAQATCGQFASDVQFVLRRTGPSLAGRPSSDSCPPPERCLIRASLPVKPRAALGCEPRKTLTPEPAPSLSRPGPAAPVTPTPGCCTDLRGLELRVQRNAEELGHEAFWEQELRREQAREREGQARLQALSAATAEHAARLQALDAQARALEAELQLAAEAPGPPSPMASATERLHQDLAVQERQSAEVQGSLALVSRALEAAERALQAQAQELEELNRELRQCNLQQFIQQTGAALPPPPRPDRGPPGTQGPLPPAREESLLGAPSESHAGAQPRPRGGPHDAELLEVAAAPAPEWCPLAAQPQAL
B4: Mothers against decapentaplegic homolog 4 (Homo sapiens), Q13485 (parent)
chain: B1 chain
partner: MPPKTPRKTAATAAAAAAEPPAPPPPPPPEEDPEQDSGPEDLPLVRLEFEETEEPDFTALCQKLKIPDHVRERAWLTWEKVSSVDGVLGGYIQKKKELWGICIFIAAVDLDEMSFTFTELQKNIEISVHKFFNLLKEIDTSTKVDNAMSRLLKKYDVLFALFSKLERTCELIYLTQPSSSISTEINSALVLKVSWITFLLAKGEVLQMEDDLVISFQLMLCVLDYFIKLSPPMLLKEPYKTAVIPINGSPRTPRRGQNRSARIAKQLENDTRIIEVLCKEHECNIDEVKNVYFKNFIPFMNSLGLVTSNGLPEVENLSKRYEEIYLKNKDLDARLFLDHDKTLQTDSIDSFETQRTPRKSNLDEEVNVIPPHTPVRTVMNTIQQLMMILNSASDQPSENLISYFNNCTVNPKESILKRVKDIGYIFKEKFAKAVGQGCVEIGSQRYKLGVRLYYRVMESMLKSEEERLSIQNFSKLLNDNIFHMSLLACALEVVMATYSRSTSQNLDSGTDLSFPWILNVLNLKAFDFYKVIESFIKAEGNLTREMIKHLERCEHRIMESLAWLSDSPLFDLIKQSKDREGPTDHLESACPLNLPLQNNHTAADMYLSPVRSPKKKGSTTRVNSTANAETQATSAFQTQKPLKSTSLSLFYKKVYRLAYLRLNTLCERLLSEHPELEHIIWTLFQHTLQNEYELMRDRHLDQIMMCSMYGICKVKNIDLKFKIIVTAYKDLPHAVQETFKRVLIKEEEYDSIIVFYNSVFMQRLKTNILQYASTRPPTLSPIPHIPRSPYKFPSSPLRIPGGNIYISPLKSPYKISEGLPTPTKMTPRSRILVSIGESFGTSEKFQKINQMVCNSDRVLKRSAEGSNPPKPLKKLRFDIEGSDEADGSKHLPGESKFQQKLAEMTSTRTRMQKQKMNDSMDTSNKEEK
B5: Mothers against decapentaplegic homolog 4 (Homo sapiens), Q13485 (parent)
chain: B1 chain
partner: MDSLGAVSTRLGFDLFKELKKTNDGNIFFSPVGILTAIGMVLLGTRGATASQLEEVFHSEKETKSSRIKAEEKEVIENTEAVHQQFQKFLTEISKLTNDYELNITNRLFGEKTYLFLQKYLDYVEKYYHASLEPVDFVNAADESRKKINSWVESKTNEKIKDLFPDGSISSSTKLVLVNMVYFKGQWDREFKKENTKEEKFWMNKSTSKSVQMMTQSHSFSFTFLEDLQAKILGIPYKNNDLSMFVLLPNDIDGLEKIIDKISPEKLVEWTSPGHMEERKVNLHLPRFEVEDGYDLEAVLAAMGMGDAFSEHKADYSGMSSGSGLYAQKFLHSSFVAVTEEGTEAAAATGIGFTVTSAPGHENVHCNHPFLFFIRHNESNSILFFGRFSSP
B6: Mothers against decapentaplegic homolog 4 (Homo sapiens), Q13485 (parent)
chain: B1 chain
partner: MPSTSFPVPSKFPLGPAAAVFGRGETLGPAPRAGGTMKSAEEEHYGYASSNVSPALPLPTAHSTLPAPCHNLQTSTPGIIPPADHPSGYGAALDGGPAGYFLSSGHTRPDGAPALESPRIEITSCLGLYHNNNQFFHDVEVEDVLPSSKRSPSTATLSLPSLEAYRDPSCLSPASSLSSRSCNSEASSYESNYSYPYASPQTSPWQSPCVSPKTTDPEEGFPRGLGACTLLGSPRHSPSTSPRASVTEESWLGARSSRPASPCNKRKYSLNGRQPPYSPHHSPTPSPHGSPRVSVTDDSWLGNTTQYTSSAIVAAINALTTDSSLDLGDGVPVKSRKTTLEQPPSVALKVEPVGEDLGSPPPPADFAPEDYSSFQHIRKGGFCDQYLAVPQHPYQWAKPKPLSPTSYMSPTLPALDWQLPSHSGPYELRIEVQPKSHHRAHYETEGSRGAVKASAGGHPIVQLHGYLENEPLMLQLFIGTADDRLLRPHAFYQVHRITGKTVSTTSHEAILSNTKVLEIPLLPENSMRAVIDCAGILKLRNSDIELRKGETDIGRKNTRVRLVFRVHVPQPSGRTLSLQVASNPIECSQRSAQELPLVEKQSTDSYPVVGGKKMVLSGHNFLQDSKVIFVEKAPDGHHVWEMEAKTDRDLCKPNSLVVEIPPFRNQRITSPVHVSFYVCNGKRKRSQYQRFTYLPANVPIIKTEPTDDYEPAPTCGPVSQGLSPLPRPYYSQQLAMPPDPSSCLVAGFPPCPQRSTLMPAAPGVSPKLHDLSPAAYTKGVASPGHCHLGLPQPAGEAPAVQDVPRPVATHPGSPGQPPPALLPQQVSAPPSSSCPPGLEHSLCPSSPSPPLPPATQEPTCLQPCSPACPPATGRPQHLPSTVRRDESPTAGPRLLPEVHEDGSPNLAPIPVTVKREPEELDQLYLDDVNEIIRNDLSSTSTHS
B7: Mothers against decapentaplegic homolog 4 (Homo sapiens), Q13485 (parent)
chain: B1 chain
partner: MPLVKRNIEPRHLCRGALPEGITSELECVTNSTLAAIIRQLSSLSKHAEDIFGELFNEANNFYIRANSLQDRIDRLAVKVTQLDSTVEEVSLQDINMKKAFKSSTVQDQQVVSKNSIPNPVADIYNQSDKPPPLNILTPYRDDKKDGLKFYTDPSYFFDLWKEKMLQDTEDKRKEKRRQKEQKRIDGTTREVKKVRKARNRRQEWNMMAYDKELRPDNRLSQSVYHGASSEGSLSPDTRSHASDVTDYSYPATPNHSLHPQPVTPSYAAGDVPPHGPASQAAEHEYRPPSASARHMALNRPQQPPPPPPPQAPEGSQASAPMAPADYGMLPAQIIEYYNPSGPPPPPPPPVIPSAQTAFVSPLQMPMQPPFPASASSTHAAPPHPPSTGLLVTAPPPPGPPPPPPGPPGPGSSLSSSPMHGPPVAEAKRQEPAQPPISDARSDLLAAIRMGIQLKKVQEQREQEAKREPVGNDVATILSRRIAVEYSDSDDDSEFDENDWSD

Variants of: B1
Conditions: with 1433f_human YWHAH

Variant	effect of a mutation on the interaction
R361H	with no effect

Variants of: B1
Conditions: with 1433f_human YWHAH
Remark: another data set of the same source

Variant	effect of a mutation on the interaction
R361C	with no effect

Variants of: B1
Conditions: with 1433f_human YWHAH
Remark: another data set of the same source

Variant	effect of a mutation on the interaction
D351H	with no effect

Variants of: B2
Conditions: with nkx28_human NKX2-8, O15522

Variant	effect of a mutation on the interaction
G386D	with no effect

Variants of: B2
Conditions: with nkx28_human NKX2-8, O15522
Remark: another data set of the same source

Variant	effect of a mutation on the interaction
D351H	with no effect

Variants of: B2
Conditions: with nkx28_human NKX2-8, O15522
Remark: another data set of the same source

Variant	effect of a mutation on the interaction
R361C	with no effect

Variants of: B2
Conditions: with nkx28_human NKX2-8, O15522
Remark: another data set of the same source

Variant	effect of a mutation on the interaction
R361H	with no effect

Variants of: B3
Conditions: with rasf7_human RASSF7, Q02833

Variant	effect of a mutation on the interaction
G386D	with no effect

Variants of: B3
Conditions: with rasf7_human RASSF7, Q02833
Remark: another data set of the same source

Variant	effect of a mutation on the interaction
R361H	with no effect

Variants of: B3
Conditions: with rasf7_human RASSF7, Q02833
Remark: another data set of the same source

Variant	effect of a mutation on the interaction
R361C	with no effect

Variants of: B3
Conditions: with rasf7_human RASSF7, Q02833
Remark: another data set of the same source

Variant	effect of a mutation on the interaction
D351H	with no effect

Variants of: B4
Conditions: with rb_human RB1, P06400

Variant	effect of a mutation on the interaction
D351H	with no effect

Variants of: B5
Conditions: with spb13_human SERPINB13, Q9UIV8

Variant	effect of a mutation on the interaction
G386D	with no effect

Variants of: B5
Conditions: with spb13_human SERPINB13, Q9UIV8
Remark: another data set of the same source

Variant	effect of a mutation on the interaction
R361C	with no effect

Variants of: B5
Conditions: with spb13_human SERPINB13, Q9UIV8
Remark: another data set of the same source

Variant	effect of a mutation on the interaction
R361H	with no effect

Variants of: B5
Conditions: with spb13_human SERPINB13, Q9UIV8
Remark: another data set of the same source

Variant	effect of a mutation on the interaction
D351H	with no effect

Variants of: B6
Conditions: with nfac1_human NFATC1, O95644

Variant	effect of a mutation on the interaction
D351H	with no effect

Variants of: B6
Conditions: with nfac1_human NFATC1, O95644
Remark: another data set of the same source

Variant	effect of a mutation on the interaction
R361H	with no effect

Variants of: B6
Conditions: with nfac1_human NFATC1, O95644
Remark: another data set of the same source

Variant	effect of a mutation on the interaction
R361C	with no effect

Variants of: B6
Conditions: with nfac1_human NFATC1, O95644
Remark: another data set of the same source

Variant	effect of a mutation on the interaction
G386D	with no effect

Variants of: B7
Conditions: with wasf3_human WASF3, Q9UPY6

Variant	effect of a mutation on the interaction
R361C	with no effect

Variants of: B7
Conditions: with wasf3_human WASF3, Q9UPY6
Remark: another data set of the same source

Variant	effect of a mutation on the interaction
R361H	with no effect

Variants of: B7
Conditions: with wasf3_human WASF3, Q9UPY6
Remark: another data set of the same source

Variant	effect of a mutation on the interaction
G386D	with no effect

Variants of: B7
Conditions: with wasf3_human WASF3, Q9UPY6
Remark: another data set of the same source

Variant	effect of a mutation on the interaction
G386D	increasing interaction strength
